Target: pGE-LysRS-6xhis-SPARC fusion protein (not stated | Clonorchis sinensis)
Experiment: SEC; Ni-affinity fractions on a Superdex 200 Increase 10/300 GL or a Superose 6 Increase 10/300 column; 50 mM Tris-Cl (pH 7.5), 300 mM NaCl; 0.3 mL/min; molecular weight estimated from elution; samples from sonication and from mild lysis

pGE-LysRS-6xhis-SPARC fusion protein
stoichiometry N: 2

Source: PMC6413200
